Here are results for one protein from ChEMBL document CHEMBL1122728, “Derivatives of 2-methyl-1,4-naphthoquinone as substrates and inhibitors of the vitamin K dependent carboxylase” (J Med Chem, 1984).

Compound in series [1]: COC(=O)[C@H](CC(C)C)NC(=O)[C@H](CCC(=O)O)NC(=O)[C@H](CCC(=O)O)NC(=O)CCCC1=C(C)C(=O)c2ccccc2C1=O
The series is described as follows: (§1) In vitro inhibitory effect Vitamin K dependent carboxylase of Phe-Leu-Glu-Glu-Leu in rat microsomal protein. Format: microsomes. As to conditions: Microsome.

Compound in series [2]: COC(=O)[C@H](CC(C)C)NC(=O)[C@H](CCC(=O)O)NC(=O)[C@H](CCC(=O)O)NC(=O)CCCC1=CC(=O)c2ccccc2C1=O
Described as §1. Format: microsomes. The settings on record: Microsome.

Where “and” joins values, the source holds several entries; their conditions need not be identical. Equal values may be shown once.

B1: Vitamin K-dependent gamma-carboxylase (Rattus norvegicus), O88496 (protein)
chain: MAVHRGSARAAPASDKVQKNKPAQTSGLEQGSRMARIFGFEWADLSSWQSVVTLLNRPTDPANLAVFRFLFAFLMLLDIPQERGLSSLDRKYLDGLDVCRFPLLDALRPLPLDWMYLVYTIMFLGALGMMLGLWYRLSCMLFLLPYWYVFLLDKTSWNNHSYLYGLLAFQLTFMDANHYWSVDGLLSAQKKNAHVPLWNYTVLRGQIFIVYFIAGVKKLDADWVEGYSMEHLSRHWLFSPFKLVLSEELTSLLVVHWCGLLLDLSAGFLLFFDASRPIGLVFVSYFHCMNSQLFSIGMFPYVMLASSPLFCSAEWPRKLVARCPKRLQELLPAKAAPRPSASCVYKRARAKAGQKPGLRHHLGTVFTLLYLLEQLFLPYSHFLTQGYNNWTNGLYGYSWDMMVHSRSHQHVKITYRDGLTGELGYLNPGVFTQSRRWKDHADMLKQYATCLSLLLPKYNVTEPQIYFDIWVSINDRFQQRLFDPRVDIVQAVWSPFRRTPWVQPLLMDLSPWRTKLQDIKSSLDNHTEVVFIADFPGLHLENFVSEDLGNTSIQLLQGEVTVELVAEQKNQTLREGEKMQLPAGEYHKVYTVSSSPSCYMYIYVNTTEVALEQDLAYLQELKEKVENGSETGPLPPELQPLLEGEVKGGPEPTPLVQTFLRRQRKLQEIERRRNSPLHERFLRFVLRKLYVFRRSFLMTRISLRNLLFGRPSLEQLAQEVTYANLRPFEPVDESSASNTDSSDPHPSEPDSEHVHSEL
For orientation: Km means the concentration of substrate that gives half-maximal velocity. With B1, the Michaelis-Menten constant (Km) in series [1] was 44 µM and < 50 µM; in series [2] it was 85 µM.
